From patent publication US20180221438A1, “MODULATING URACIL-DNA GLYCOSYLASE AND USES THEREOF” (Adaerata Limited Partnership, priority 2015, published 2018)

Tests used:
CH12F3 cells [1] = experiment: Proliferation of CH12F3 cells after CSR stimulation (cell number, CFSE dilution); assay type: cell-based, mouse; conditions: CH12F3 Ugi cells stimulated for CSR; prevented by AID knockdown
Experimental: B cell lymphoma cells, CH12F3-2 cells, were cultured in RPMI medium supplemented with 10% FBS, 0.05% 2- mercaptoethanol and 5% NCTC 109 (Sigma). CH12F3-2 cells stably expressing Ugi were obtained by retroviral delivery using pMIG vector as described before ^39. Class switching induction to IgA in CH12F3-2 cells was performed as previously published ^39. CSR to IgA in CH12F3-2 cells was determined with an Accuri C6™ Flow Cytometer (BD Biosciences). Mouse B cells were purified from freshly isolated splenocytes using anti-CD43 magnetic beads as described ^70. CSR was induced using 5 ? g/ml LPS (Sigma) and 20 ng/ml IL-4 (Preprotech). Cells were harvested for ChIP or metaphase spreads and FISH at 24 h post stimulation.

DLBCL cells = experiment: Metaphases with STL in DLBCL lines; assay type: cell-based, human; conditions: DLBCL lines expressing GFP or Ugi, and AID or shAID
Experimental: For metaphase analysis cells were incubated with 50 ng/ml colcemide in cell culture media for 3 hours, harvested by trypsinization, incubated for 10 min at RT in 75 mM KCl, and fixed in freshly prepared methanol:glacial acetic acid (3:1 v/v). Cells were stored at 4° C. and when needed dropped onto wet slides and air-dried. For FISH analysis of the metaphases the cells were pre-treated with 0.05% w/v pepsin in 10 mM HCl during 10 minutes at 37° C. After washes with 1X PBS, cells were fixed with 1% formaldehyde in 1X PBS during 10 minutes at RT, washed again with 1X PBS and dehydrated with ethanol series (70-90-100%, 2 min each at RT) and air-dried ON. Then, cells were denatured with hybridization solution (70% deionized formamide; 2.5% 50× Denhardt solution; 10 mM Tris pH 7.5; 1.5 mM MgCl2) containing Alexa488-conjugated PNA probe (Alexa488-OO-(CCCTAA)3) 2 min at 80° C. on a heat block. After 4 hours incubation at RT in the dark, the samples were washed twice with wash solution (70% deionized formamide and 10 mM Tris-HCl [pH 7.2]) at RT and then twice with PBS. For DAPI staining of DNA, slides with metaphase spreads were incubated 10 min in 0.5 ? g/ml 4′, 6-diamino-2-phenylindole (DAPI) (Sigma) in PBS, washed with PBS for 2 min, and mounted in SlowFade™ Gold antifade mounting reagent (Life Technologies). Finally, the samples were analyzed as described above. […]

CH12F3-2 cells = experiment: Cloning efficiency of single CH12F3-2 cells; assay type: cell-based, mouse; conditions: 14 days after single-cell dilution with cytokines to induce CSR to IgA, vs CH12F3-2 GFP
Description: B cells must expand clonally while expressing AID during the GC reaction. Based on the results described above the inventors asked whether UNG deficiency might limit the proliferation capacity of transformed B-cells expressing AID. To assess the effect of UNG deletion on the proliferation of B-cells expressing AID, the inventors immunized WT and UNG-null mice with a T-dependent antigen to stimulate germinal center (GC) B-cell expansion and AID expression in vivo. The inventors used an AID-GFPtg reporter mouse that allows identifying AID+ GC B-cells in response to immunization ^6,28. […] This reduction was explained by the ˜3-fold smaller average GC size in Ung^−/− versus Ung^+/+ AID-GFPtg mice, rather than any difference in the number of GC (FIGS. 10C-D). […] However, it must be noted that at variance with immunization, which stimulates a few B-cells that need to undergo clonal expansion to form the GC, stimulation in vitro with cytokines causes massive proliferation accompanied by a high level of spontaneous cell death, which likely obscures the additional increase due to UNG-deficiency (not shown). To address this limitation, the inventors evaluated the cloning efficiency of single B-cells. […]

CH12F3 cells [2] = experiment: ChIP for DNA damage marker at the telomeres; assay type: cell-based, mouse; conditions: CH12F3 Ugi vs CH12F3 GFP
Experimental: ChIPs to evaluate interaction with the telomeric chromatin or the Ig locus were performed as described previously ^39,61. Briefly, cells were cross-linked with 1% formaldehyde for 20 min at room temperature and reaction was stopped by addition of glycine to 125 mM final concentration. Cells were washed twice with cold PBS, harvested and kept at −80° C. O.N. Samples were resuspended in RIPA buffer (150 mM NaCl, 1% [v/v] Igepal CA-630, 0.5% [w/v] Sodium Deoxycholate, 0.1% [w/v] SDS, 50 mM Tris-HCl at pH 8, 5 mM EDTA, protease and phosphatase inhibitors) and sonicated to generate DNA fragments <500 bp using a Bioruptor™ Next Gen (Diagenode).
In order to increase the sensitivity of the ChIP assays and evaluate the presence of AID at the telomeres we performed the immunoprecipitations with fractions enriched in crosslinked chromatin. For this goal B cells fixed with 1% formaldehyde as described above were resuspended in RIPA buffer, sonicated during 90 seconds using a Bioruptor™ Next Gen (Diagenode), and the lysates were then spun down briefly (2000g, for 5 min at 4 C) to remove debris. […] Samples were then clarified by centrifugation at 20,000 RPM (4° C.) and their protein content was measured using the BCA method (Biorad). […]

B1: Ugi: Uracil Glycosylase Inhibitor of Bacillus subtilis bacteriophage PBS1/PBS2, small protein (9.5 kDa), SEQ ID NO: 29; expressed in cells by retroviral delivery (protein)
chain: MTNLSDIIEKETGKQLVIQESILMLPEEVEEVIGNKPESDILVHTAYDESTDENVMLLTSDAPEYKPWALVIQDSNGENKIKML
modifications: bacillus subtilis
notes: expressed in cells by retroviral delivery
growth (total cell number or CFSE dilution assay) (CH12F3 cells [1]): reduced growth | number of metaphases with STL (DLBCL cells): significant increase in the number of metaphases with STL only when DLBCL cells expressed AID and Ugi but not with Ugi alone | cloning capacity (CH12F3-2 cells): significant decrease in the cloning capacity | phospho-ser129-H2AX at the telomeres (CH12F3 cells [2]): AID-dependent accumulation of phospho-ser129-H2AX
